Results: article PMC4612562, “Coronin 2A (CRN5) expression is associated with colorectal adenoma-adenocarcinoma sequence and oncogenic signalling” (BMC Cancer, 2015)

Biological target: T1, His6-PRMT5 (UniProt O14744 1-637)
T1 construct: PRMT5, cDNA AF167572.1 in pReceiver-B01 (GeneCopoeia EX-V1247-B01); also called protein arginine N-methyltransferase 5; source: E. coli BL21, purified (Ni-beads)
Assay: pull-down; GST-CRN5 on glutathione-sepharose beads as bait; TEV-cleaved MAPK14 or purified His6-PRMT5 as prey; 50 mM Tris/HCl pH 8.0, 150 mM NaCl, 0.5 % NP-40; three washes; SDS-PAGE and immunoblot
Conditions: both partners purified

T1 sequence (O14744 whole entry): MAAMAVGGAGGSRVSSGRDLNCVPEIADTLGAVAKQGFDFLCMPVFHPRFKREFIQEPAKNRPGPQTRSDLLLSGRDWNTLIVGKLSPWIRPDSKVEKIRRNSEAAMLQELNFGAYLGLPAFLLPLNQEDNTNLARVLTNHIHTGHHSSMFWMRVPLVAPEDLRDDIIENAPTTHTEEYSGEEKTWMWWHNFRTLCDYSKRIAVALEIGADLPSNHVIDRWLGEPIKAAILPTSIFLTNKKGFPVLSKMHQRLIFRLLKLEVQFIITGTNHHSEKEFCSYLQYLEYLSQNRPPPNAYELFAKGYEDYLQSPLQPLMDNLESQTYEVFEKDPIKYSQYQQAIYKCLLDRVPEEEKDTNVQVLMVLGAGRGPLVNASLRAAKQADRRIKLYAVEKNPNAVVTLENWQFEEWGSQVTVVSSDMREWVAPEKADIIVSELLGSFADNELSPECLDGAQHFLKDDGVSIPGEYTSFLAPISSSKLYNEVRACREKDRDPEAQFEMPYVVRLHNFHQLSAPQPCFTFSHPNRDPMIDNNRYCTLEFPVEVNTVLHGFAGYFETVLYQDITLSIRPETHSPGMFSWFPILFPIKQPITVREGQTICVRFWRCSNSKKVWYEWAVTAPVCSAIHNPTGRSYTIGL

B1: GST-CRN5 (coronin 2A) (natural protein, human, UniProt Q92828 1-525, looked up)
chain: MSWHPQYRSSKFRHVFGKPASKENCYDSVPITRSVHDNHFCAVNPHFIAVVTECAGGGAFLVIPLHQTGKLDPHYPKVCGHRGNVLDVKWNPFDDFEIASCSEDATIKIWSIPKQLLTRNLTAYRKELVGHARRVGLVEWHPTAANILFSAGYDYKVMIWNLDTKESVITSPMSTISCHQDVILSMSFNTNGSLLATTCKDRKIRVIDPRAGTVLQEASYKGHRASKVLFLGNLKKLMSTGTSRWNNRQVALWDQDNLSVPLMEEDLDGSSGVLFPFYDADTSMLYVVGKGDGNIRYYEVSADKPHLSYLTEYRSYNPQKGIGVMPKRGLDVSSCEIFRFYKLITTKSLIEPISMIVPRRSESYQEDIYPPTAGAQPSLTAQEWLSGMNRDPILVSLRPGSELLRPHPLPAERPIFNSMAPASPRLLNQTEKLAAEDGWRSSSLLEEKMPRWAAEHRLEEKKTWLTNGFDVFECPPPKTENELLQMFYRQQEEIRRLRELLTQREVQAKQLELEIKNLRMGSEQL
notes: coronin 2A (CRN5), human cDNA NM_052820 (origene SC109892) cloned into pGEX-4T-1; pGEX-4T-1 normally places GST at the N-terminus (surmised); also called coronin 4; ClipinB; source: E. coli BL21, purified on glutathione beads (pull-down); E. coli lysate captured on CRN5 mAb K77-578-1 / Protein G microbeads (co-immunoprecipitation)
binding result: binds
